According to patent US20060142546A1, “Immunogenic muc1 glycopeptides” (priority 2002, published 2006):
Where a SMILES comes first, the peptide text is derived from it. Where no end group is shown, it is not given here. The star is where a group is joined. Cbz = O=C(OCc1ccccc1)*; CH2F = FC*

How the values were obtained:
[1] = tested on: Cathepsin L-like activity in low-density endosomes from mouse dendritic cells; assay: Proteolysis of TAP25 by low-density endosomal fractions from mouse dendritic cells; assay type: biochemical; settings: 1 μM inhibitor, TAP25 as substrate
Description: Mouse dendritic cells (10^8) were homogenized by fine-needle aspiration on ice using 1 ml of 0.3 M sucrose, 0.01 M Hepes as buffer (without protease inhibitors). After dilution to 7 ml and centrifugation at 850 g for 10 min to remove intact cells and nuclei, 6 ml of the supernatant were centrifuged over 24 ml of 30% Percoll with 0.3 M sucrose, 0.01 M Hepes for 105 min at 20.000 rpm in a centrifuge (model J2-21 M/E, rotor: JA-20, Beckman instruments, München, Germany) (Barnes et al., J. Exp. Med. 181 (1995), 1715-1727). The gradient was fractionated by gravity siphon (30×1 ml) and each fraction was analysed after sonication for the presence of MHC class II molecules by enzyme immunoassay with anti-H2 antibody (rat hybridoma cell line M1/42.3.9.8.HLK obtained from the ATCC), β-hexosamimidase activity (Barnes et al., 1995) and cathepsin L related proteolytic activity using TAP25 peptide as substrate (5 μg). The samples were incubated for 24 h at 37° C., diluted 20 fold in aqueous TFA and analysed by MALDI mass spectrometry. For specific inhibition of cathepsin L activity, the corresponding fractions were mixed with 1 μM Z-Leu-Leu-Leu-fluoromethyl ketone (Sigma).

human cathepsin L = biological target: T1, human cathepsin L (Homo sapiens, UniProt P07711); assay: In vitro proteolysis of native MUC1 and MUC1 (glyco)peptides with human cathepsin L; assay type: biochemical; settings: for proteolysis by cathepsin L: 3 h or 24 h
T1 construct: in the cathepsin L preparation from human liver; purchased Sigma (München, Germany); host or cells: human liver
T1 sequence (P07711 114-288 limits assumed): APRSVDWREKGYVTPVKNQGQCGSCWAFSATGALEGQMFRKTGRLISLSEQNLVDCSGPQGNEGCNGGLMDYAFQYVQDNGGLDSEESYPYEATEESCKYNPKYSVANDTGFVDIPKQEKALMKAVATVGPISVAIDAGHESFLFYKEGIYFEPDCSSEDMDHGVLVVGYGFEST
T1 sequence (P07711 292-333 limits assumed): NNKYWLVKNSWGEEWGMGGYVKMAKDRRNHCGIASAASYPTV
Description: FIG. 4: In vitro proteolysis of MUC1 glycopeptide A3 by human cathepsin L. N-terminally free or biotinylated MUC1 glycopeptide A3 (10 μg) were treated for 3 h with 1 milliunit of cathepsin L in the presence or absence of the cathepsin L/B-specific cysteine protease inhibitor Z-Leu-Leu-Leu-fluoromethyl ketone (1 μM) using 0.1M sodium acetate, pH 5.5, containing 1 mM EDTA, and 1 mM DTT as reaction buffer.
Human cathepsins L and D were purchased from Sigma (München, Germany) and solubilized in 0.1 M sodium acetate buffer, pH 5.5, containing 1 mM EDTA (cathepsin D) and 1 mM dithiotreitol (cathepsin L). 2-5 units of enzyme(s) were added to 100 μg of mucin or recombinant fusion protein or to 10 μg of (glyco)peptide substrates in a total volume of 20 μl digestion buffer (see above). The reaction mixtures were incubated at 37° C. and 2 μl were withdrawn after 3 h or 24 h and diluted 20 fold in 0.1% aqueous TFA prior to MALDI mass spectrometry. In case of native MUC1 samples with complex O-glycosylation (MUC1 from tumor ascites, HMFG-MUC1, partially deglycosylated HMFG-MUC1, and MFP6 fusion protein) the digest was desalted by solid-phase extraction (ZipTip C18) and the (glyco)peptides were deglycosylated by β-elimination/ethylaminylation in 70% ethylamine at 50° C. as previously described (Müller and Hanisch, J. Biol. Chem. 277 (2002), 26103-26112). Each glycosylated position in the peptide fragments corresponds to the addition of a 27 u mass increment.

[2] = tested on: human immature dendritic cells; assay: Processing of MUC1 antigen by human monocyte-derived dendritic cells (antigen pulse, MALDI/LC-MS of fragments); assay type: cell-based; settings: cellular lysate or culture supernatant, mass range up to 8 kDa
Description: Human immature DCs were pulsed with native, N-terminally unmodified, soluble antigens, while the mature mouse DCs had to be fed with particulate antigen to reach sufficient antigen load. […] Simultaneously, the maturation process of the cells was induced by addition of 20 ng/ml tumor necrosis factor (TNF-α; Sigma-Aldrich, Munich, Germany) and 10 μg/ml of anti-CD40 antibody (Pharmingen, San Diego, Calif.). The cells were finally separated from medium by centrifugation, washed in PBS and both fractions were analysed for the presence of peptide/glycopeptide fragments according to the protocol described below.
The human or mouse dendritic cell fractions were treated on ice for 15 min with 100 μl 1% NP40, 10 mM Tris-HCl, 150 mM NaCl, pH 8.0 containing a cocktail of protease inhibitors (Sigma P8340, München, Germany) followed by ultrasonication for 2 min. […] To avoid selection of product subfractions by affinity-isolation, in most experiments the peptides were enriched by solid-phase extraction on reversed-phase columns.
Peptides and glycopeptides contained in the cell-free supernatants were affinity-isolated by solid-phase extraction on reversed-phase supports (100 μg polysphere C18, 50 μl Poros C18). […]

## CC(C)C[C@H](NC(=O)[C@H](CC(C)C)NC(=O)[C@H](CC(C)C)NC(=O)OCc1ccccc1)C(=O)CF [Z-Leu-Leu-Leu-fluoromethyl ketone, reference compound] (Cbz-Leu-Leu-Leu-CH2F)
[1]
  inhibition of cysteine protease in low density endosomes: inhibitable
Human cathepsin L; inhibitor 1 μM, substrate glycopeptide A3
  inhibition of catalytic activity directed to the Thr-Ser bond: specifically inhibited

## AHGVTSAPESRPAPGSTAPAA (not fully specified (residue 5); also: GalNAc glycan at Thr5 (H4), Ser10 (H5) or Thr17 (H6), which one is not fixed for this name, biotinylated)
Human cathepsin L; pH 5.5, 1 mM DTT, 37° C.
  proteolysis by cathepsin L: stable to proteolysis

## Asc-MUC1: MUC1 from pooled human tumor ascites
[2]
  fragmentation of antigen: No fragmentation
Human cathepsin L; pH 5.5, 1 mM DTT, 37° C.
  proteolysis by cathepsin L: not digested

## GST20-AES (GSTAPAAHGVTSAPESRPAP; also: glycosylated, sites not given here)
Human cathepsin L; Table 2, 3 h, 37° C., pH 5.5
  structural assignment of product: SAP9
Human cathepsin L; Table 2, synthetic monomeric repeat peptides, N-terminally unmodified, 3 h, 37° C., pH 5.5, 1 mM DTT
  Average mass of production (mass range 500-4500 Da): 910.8 Da
Human cathepsin L; standard conditions for cysteine proteases, incubation 3 h
  cleavage: 80%

## GalNAc-MUC1: partially deglycosylated HMFG-MUC1
Human cathepsin L; Table 3, native mucin, after de-O-glycosylation/ethylaminylation
  structural assignment of repeat fragment ion: GVT20 + 1-4 HexNAc
Human cathepsin L; pH 5.5, 1 mM DTT, 37° C.
  proteolysis by cathepsin L: fragmentation by cathepsin L at low efficiency

## HMFG-MUC1: mucin from human milk fat globule membranes
Human cathepsin L; pH 5.5, 1 mM DTT, 37° C.
  proteolysis by cathepsin L: not digested
